# Measured values from patent US8354508B2.
# Target: T1, Boc-QAR-AMC
# T1 sequence (peptide, N-terminal Boc; C-terminal AMC): QAR
substance,measurement,value
human Pro115 on cells (enzyme),"fluorescence of cleaved Boc-QAR-AMC (370 nm excitation, 450 nm emission), cell-based protease assay",3 times
